According to patent publication US7176277 (BURNHAM INSTITUTE, dated 2007):

Legend:
Bcl-2 = target: T1, Bcl-2 (UniProt P10415 1-239); assay: Co-IP (result restated in Example 8)
T1 construct: The residue numbers used for the mutants (Tyr108, Leu137, Gly145, Arg146, TM 205-239) fit human Bcl-2 alpha; also called full-length Bcl-2; ^35S-labeled Bcl-2
Procedure: (§1) The cells were harvested and reporter gene activity was measured. […] Cells were suspended in lysis buffer (50 mM Tris-HCl, PH7.4; 150 mM NaCl; 20 mM EDTA; 1% NP-40; 1 mM PMSF; 50 μg/ml Leupeptin; 20 mg/ml Aprotinin; 0.1 mM Na_3VO_4; and 1 mM DTT). Cells extracts were cleared by incubation with the Protein A/G plus Agarose beads (Santa Cruz) and then incubated with appropriate antibody and 30 μl of Protein A or G plus Agarose beads overnight at 4° C. […] Immunoreactive products were detected by chemiluminescence with an enhanced chemiluminescence system (ECL) (Amersham).
A Co-IP assay was performed, as described above.

GFP-TR3/ΔDBD = target: T2, GFP-TR3/ΔDBD (human, UniProt P22736 1-598); assay: Co-IP
T2 construct: also called GFP-ΔDBD
Procedure: as §1

binding result (Bcl-2)	binding result (GFP-TR3/ΔDBD)	Binder
no binding	–	TR3/ΔDBD/ΔDC1 (other, not shown: large carriers; small tags and cut ends, also called TR3/ΔDBD/DC1; GFP fusion) MPCIQAQYGTPAPSPGPRDHLASDPLTPEFIKPTMDLASPEAAPAAPTALPSFSTFMDGYTGEFDTFLYQLPGTVQPCSSASSSASSTSSSSATSPASASFKFEDFQVYGCYPGPLSGPVDEALSSSGSDYYGSPCSAPSPSTPSFQPPQLSPWDGSFGHFSPSQTYEHVAAVAGEPQPASCLSRLLGKLPELRTLCTQGLQRIFYLKLEDLVPPPPIIDKIFMDTLPF
–	no binding	Bcl-2/ΔLoop (other, UniProt P10415 1-239, looked up, also called Bcl-2 lacking the loop region) MAHAGRTGYDNREIVMKYIHYKLSQRGYEWDAAGPALSPVPPVVHLTLRQAGDDFSRRYRRDFAEMSSQLHLTPFTARGRFATVVEELFRDGVNWGRIVAFFEFGGVMCVESVNREMSPLVDNIALWMTEYLNRHLHTWIQDNGGWDAFVELYGPSMRPLFDFSWLSLKTLLSLALVGACITLGAYLGHK
